Results published in patent publication US20160297884A1 (Pfizer, published 2016).
Residue numbers refer to the chain shown, from its start.

T1: Human BCMA (human, UniProt Q02223 1-54, limits assumed)
T1 construct: also called huBCMA; B-cell maturation antigen
T1 sequence (looked up): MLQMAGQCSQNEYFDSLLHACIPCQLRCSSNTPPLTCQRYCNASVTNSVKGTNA

B1: A02_Rd4_6nM_C10 (antibody, V domains shown)
VH: EVQLLESGGGLVQPGGSLRLSCAASGFTFSSYAMNWVRQAPGKGLEWVSAISDSGGSCWYADSVKGRFTISRDNSKNTLYLQMNSLRAEDTAVYYCARYWPMTPWGQGTLVTVSS
VL: EIVLTQSPGTLSLSPGERATLSCRASQSVEMSYLAWYQQKPGQAPRLLMYDASIRATGIPDRFSGSGSGTDFTLTISRLEPEDFAVYYCQQYAHWPLTFGQGTKVEIK
notes: IgG
B2: A02_Rd4_6nM_C23 (antibody, V domains shown)
VH: B1 VH with C58G, T103S, P104L
VL: B1 VL with E30S, M31V, S32E, H94R
notes: IgG
B3: COMBO_Rd4_0.6nM_C17 (antibody, V domains shown)
VH: B1 VH with A33P, N35S, S52G, D53G, C58L, W59P, T103D, P104I
VL: B1 VL with S28G, V29I, E30S, M31S, S32T, H94Y
notes: IgG
B4: COMBO_Rd4_0.6nM_C02 (antibody, V domains shown)
VH: B1 VH with A33P, N35S, S52G, D53G, C58L, W59P, T103D, P104S
VL: B1 VL with Q27I, S28A, E30S, M31S, S32T, A93M, H94V
notes: IgG
B5: C01_Rd4_6nM_C20 (antibody, V domains shown)
VH: B1 VH with A33P, N35S, S52G, D53G, C58L, W59P, T103D, P104S
VL: B1 VL with E30S, M31P, S32L, M49I, I54S, T57P, A93S, H94A, W95F
notes: IgG
B6: COMBO_Rd4_0.6nM_C14 (antibody, V domains shown)
VH: B1 VH with A33P, N35S, S52G, D53G, C58L, W59P, T103D, P104I
VL: B1 VL with E30S, M31A, S32L, A93Y, H94G
notes: IgG
B7: C01_Rd4_6nM_C04 (antibody, V domains shown)
VH: B1 VH with A33P, N35S, S52G, D53G, C58L, W59P, T103D, P104S
VL: EIVLTQSPGTLSLSPGERATLSCCSSQSVSSTYLAWYQQKPGQAPRLLIYDASSRAPGIPDRFSGSGSGTDFTLTISRLEPEDFAVYYCQQYSAFPLTFGQGTKVEIK
notes: IgG
B8: COMBO_Rd4_0.6nM_C05 (antibody, V domains shown)
VH: B1 VH with S52G, D53G, C58T, W59Y, T103S, P104L
VL: B1 VL with E30S, M31S, S32T, A93M, H94S
notes: IgG
B9: A02_Rd4_6nM_C16 (antibody, V domains shown)
VH: B1 VH with S54F, C58T, W59Y, T103D, P104I
VL: B1 VL with E30S, M31D, S32L, A93Q, H94T
notes: IgG; also called P5AC16
B10: C01_Rd4_6nM_C09 (antibody, V domains shown)
VH: B1 VH with A33P, N35S, I51T, S52V, D53G, C58I, W59G, T103D, P104S
VL: B7 VL with C24A, S25C, F95W
notes: IgG
B11: C01_Rd4_0.6nM_C27 (antibody, V domains shown)
VH: B1 VH with A33P, N35S, S52G, D53G, C58L, W59P, T103D, P104S
VL: B7 VL with C24R, S25A, A94R, F95W
notes: IgG
B12: C01_Rd4_0.6nM_C16 (antibody, V domains shown)
VH: B1 VH with A33P, N35S, S52G, D53G, C58L, W59P, T103D, P104S
VL: B7 VL with C24R, S25A, A94S, F95W
notes: IgG
B13: C01_Rd4_6nM_C24 (antibody, V domains shown)
VH: B1 VH with A33P, N35S, S52G, D53G, C58L, W59P, T103D, P104S
VL: B7 VL with C24R, S25A, S31P, T32E, A94V, F95W
notes: IgG

What was measured:
Human BCMA = molecular target: T1, Human BCMA; experiment: SPR, IgG immobilised, human BCMA analyte
Experimental: (§1) All experiments were performed on a Bio-Rad Proteon XPR36 surface Plasmon resonance biosensor (Bio-Rad, Hercules, Calif.). […] The analysis temperature for the immobilization was 25° C. and the running buffer was HBS-T+(10 mM HEPES, 150 mM NaCl, 0.05% Tween-20, pH 7.4). Channels were activated in the analyte (horizontal) direction by injecting a mixture of 1 mM ECD and 0.25 mM NHS for 3 minutes at a flow rate of 30 μL/min. IgGs were immobilized on the activated spots by injecting them in the ligand (vertical) direction at 20 μg/mL in 10 mM Acetate pH 4.5 buffer for 1.5 minutes at […]. The activated surfaces were blocked by injecting 1M ethanolamine, pH 8.5 in the analyte direction for 3 minutes at 30 μL/min.
(§2) The analysis temperature for the BCMA binding analysis was 37° C. or 25° C. in a running buffer of HBS-T+, supplemented with 1 mg/mL BSA. A kinetic titration method was employed for the interaction analysis as described in Abdiche, et al. Human BCMA (huBCMA) or cynomolgus monkey BCMA (cyBCMA) analyte was injected in the analyte direction using a series of injections from low to high concentration. The concentrations used were 0.08 nM, 0.4 nM, 2 nM, 10 nM and 50 nM (a 5-membered series, with a 5-fold dilution factor and top concentration of 50 nM). The association time for a given analyte dilution was two minutes. Immediately after the 50 nM BCMA injection, dissociation was monitored for 2 hours.
(§3) The sensorgrams were double-referenced and fit to a 1:1 Langmuir with mass transport kinetic titration model in BIAevaluation Software version 4.1.1 (GE Lifesciences, Piscataway, N.J.).

Cynomolgus monkey BCMA = molecular target: T2, Cynomolgus monkey BCMA (cynomolgus monkey); experiment: SPR, IgG immobilised, cyno BCMA analyte
T2 construct: Soluble analyte in SPR; also called cyBCMA; Cyno BCMA
Experimental: as §1, §2, §3

Binder	Kd (Human BCMA)	koff (Human BCMA)	kon (Human BCMA)	Kd (Cynomolgus monkey BCMA)	koff (Cynomolgus monkey BCMA)	kon (Cynomolgus monkey BCMA)
B1	0.07 nM	0.000315 s⁻¹	4.51e+06 M⁻¹ s⁻¹	0.472 nM	0.000898 s⁻¹	1.9e+06 M⁻¹ s⁻¹
B2	0.021 nM	0.000255 s⁻¹	1.22e+07 M⁻¹ s⁻¹	0.157 nM	0.000414 s⁻¹	2.63e+06 M⁻¹ s⁻¹
B3	0.092 nM	0.000801 s⁻¹	8.68e+06 M⁻¹ s⁻¹	0.33 nM	0.00101 s⁻¹	3.06e+06 M⁻¹ s⁻¹
B4	0.022 nM	0.000185 s⁻¹	8.57e+06 M⁻¹ s⁻¹	0.164 nM	0.000494 s⁻¹	3.01e+06 M⁻¹ s⁻¹
B5	0.459 nM	0.00276 s⁻¹	6.02e+06 M⁻¹ s⁻¹	1.74 nM	0.00625 s⁻¹	3.6e+06 M⁻¹ s⁻¹
B6	0.038 nM	0.000328 s⁻¹	8.66e+06 M⁻¹ s⁻¹	0.185 nM	0.000645 s⁻¹	3.48e+06 M⁻¹ s⁻¹
B7	2.13 nM	0.0497 s⁻¹	2.33e+07 M⁻¹ s⁻¹	5.16 nM	0.0327 s⁻¹	6.34e+06 M⁻¹ s⁻¹
B8	0.115 nM	0.000497 s⁻¹	4.32e+06 M⁻¹ s⁻¹	0.886 nM	0.00172 s⁻¹	1.94e+06 M⁻¹ s⁻¹
B9	0.09 nM	0.000141 s⁻¹	1.56e+06 M⁻¹ s⁻¹	0.118 nM	0.000158 s⁻¹	1.34e+06 M⁻¹ s⁻¹
B10	0.811 nM	0.0128 s⁻¹	1.58e+07 M⁻¹ s⁻¹	2.33 nM	0.00868 s⁻¹	3.73e+06 M⁻¹ s⁻¹
B11	0.303 nM	0.00374 s⁻¹	1.23e+07 M⁻¹ s⁻¹	0.852 nM	0.00285 s⁻¹	3.34e+06 M⁻¹ s⁻¹
B12	0.407 nM	0.0063 s⁻¹	1.55e+07 M⁻¹ s⁻¹	0.939 nM	0.00464 s⁻¹	4.95e+06 M⁻¹ s⁻¹
B13	0.467 nM	0.00348 s⁻¹	7.47e+06 M⁻¹ s⁻¹	0.281 nM	0.000891 s⁻¹	3.17e+06 M⁻¹ s⁻¹
